According to PMC5170556 (Molecular Biology of the Cell, 2016):

Key:
Bim1 (full-length) = target: T1, Bim1 (full-length) (S. cerevisiae, UniProt P40013 1-344); assay: SEC-MALS
T1 sequence (looked up): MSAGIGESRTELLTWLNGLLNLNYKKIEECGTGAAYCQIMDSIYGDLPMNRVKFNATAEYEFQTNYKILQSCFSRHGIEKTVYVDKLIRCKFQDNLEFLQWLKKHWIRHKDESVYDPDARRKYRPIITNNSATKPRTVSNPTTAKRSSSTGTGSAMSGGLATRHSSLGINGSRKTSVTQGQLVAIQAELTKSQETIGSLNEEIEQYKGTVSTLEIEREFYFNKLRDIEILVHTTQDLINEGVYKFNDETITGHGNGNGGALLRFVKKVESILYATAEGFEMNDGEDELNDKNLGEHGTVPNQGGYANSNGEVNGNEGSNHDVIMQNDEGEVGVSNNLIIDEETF

[1] = target: T2, C-terminally green fluorescent protein–tagged Bim1 (S. cerevisiae, UniProt P40013 1-344); assay: AUC
T2 sequence (looked up): T1 sequence (looked up)

B1: Kar9 (full-length) (natural protein, S. cerevisiae, UniProt P32526 1-644, looked up)
chain: MDNDGPRSMTIGDDFQENFCERLERIHNTLHSINDCNSLNESTTSISETLLVQFYDDLENVASVIPDLVNKKRLGKDDILLFMDWLLLKKYMLYQFISDVHNIEEGFAHLLDLLEDEFSKDDQDSDKYNRFSPMFDVIEESTQIKTQLEPWLTNLKELLDTSLEFNEISKDHMDTLHKIINSNISYCLEIQEERFASPIRHTPSFTLEQLVKLLGTHTETTEPKVPKFSPAEDILSRKFLNLKKNIPPIEKSLTDILPQRIVQFGHRNITNITTLQTILQKKYELIMKDYRFMNSEFRELKVELIDKRWNILFINLNHELLYILDEIERLQSKLLTTKYTKDITIRLERQLERKSKTVSKTFNIIYRALEFSLLDAGVASKTNELAQRWLNIKPTADKILIKSSASNKIATSKKKIPKPKSLGFGRPNSVIGTITQDFQERVAINEGDSNKTPENSTTVALKGKKLGKALLQKMNIKPATSPNSSNAINPFFDPESPNKGKLILSSVPPLPYDETDETTLRVSRGENEKSPDSFITSRHENKVQITETPLMAKNKSVLDIEKDKWNHYRSLPSRIPIYKDKVVKVTVENTPIAKVFQTPPTKITTPNSQVWVPSTRRRTRLRPPTPLSQLLSPREGRLDKTPTY
stoichiometry N (Bim1 (full-length)): 1 Kar9 monomer per Bim1 dimer
stoichiometry N [1]: 1 Kar9 monomer per Bim1 dimer
